Results as given in US20110263454A1, “Methods of Identifying Functional Characteristics of Promoters, Transcription Modifying Proteins and Transcription Modulating Agents” (Salk Institute for Biological Studies, priority 2008, published 2011).

B1: RXRb: Retinoic X Receptor β (NR2B2), cDNA driver (protein, UniProt P28702 1-533, looked up)
Retinoic acid receptor …: MSWAARPPFLPQRHAAGQCGPVGVRKEMHCGVASRWRRRRPWLDPAAAAAAAVAGGEQQTPEPEPGEAGRDGMGDSGRDSRSPDSSSPNPLPQGVPPPSPPGPPLPPSTAPSLGGSGAPPPPPMPPPPLGSPFPVISSSMGSPGLPPPAPPGFSGPVSSPQINSTVSLPGGGSGPPEDVKPPVLGVRGLHCPPPPGGPGAGKRLCAICGDRSSGKHYGVYSCEGCKGFFKRTIRKDLTYSCRDNKDCTVDKRQRNRCQYCRYQKCLATGMKREAVQEERQRGKDKDGDGEGAGGAPEEMPVDRILEAELAVEQKSDQGVEGPGGTGGSGSSPNDPVTNICQAADKQLFTLVEWAKRIPHFSSLPLDDQVILLRAGWNELLIASFSHRSIDVRDGILLATGLHVHRNSAHSAGVGAIFDRVLTELVSKMRDMRMDKTELGCLRAIILFNPDAKGLSNPSEVEVLREKVYASLETYCKQKYPEQQGRFAKLLLRLPALRSIGLKCLEHLFFFKLIGDTPIDTFLMEMLEAPHQLA
B2: PPARd: Peroxisome proliferator activated receptor δ (NR1C2), cDNA driver (protein, UniProt Q03181 1-441, looked up)
Peroxisome …: MEQPQEEAPEVREEEEKEEVAEAEGAPELNGGPQHALPSSSYTDLSRSSSPPSLLDQLQMGCDGASCGSLNMECRVCGDKASGFHYGVHACEGCKGFFRRTIRMKLEYEKCERSCKIQKKNRNKCQYCRFQKCLALGMSHNAIRFGRMPEAEKRKLVAGLTANEGSQYNPQVADLKAFSKHIYNAYLKNFNMTKKKARSILTGKASHTAPFVIHDIETLWQAEKGLVWKQLVNGLPPYKEISVHVFYRCQCTTVETVRELTEFAKSIPSFSSLFLNDQVTLLKYGVHEAIFAMLASIVNKDGLLVANGSGFVTREFLRSLRKPFSDIIEPKFEFAVKFNALELDDSDLALFIAAIILCGDRPGLMNVPRVEAIQDTILRALEFHLQANHPDAQYLFPKLLQKMADLRQLVTEHAQMMQRIKKTETETSLHPLLQEIYKDMY
B3: CAR: Constitutive Androstane Receptor (NR1I3), cDNA driver (protein, UniProt Q14994 1-352, looked up)
Nuclear receptor subfamily 1 …: MASREDELRNCVVCGDQATGYHFNALTCEGCKGFFRRTVSKSIGPTCPFAGSCEVSKTQRRHCPACRLQKCLDAGMRKDMILSAEALALRRAKQAQRRAQQTPVQLSKEQEELIRTLLGAHTRHMGTMFEQFVQFRPPAHLFIHHQPLPTLAPVLPLVTHFADINTFMVLQVIKFTKDLPVFRSLPIEDQISLLKGAAVEICHIVLNTTFCLQTQNFLCGPLRYTIEDGARVSPTVGFQVEFLELLFHFHGTLRKLQLQEPEYVLLAAMALFSPDRPGVTQRDEIDQLQEEMALTLQSYIKGQQRRPRDRFLYAKLLGLLAELRSINEAYGYQIQHIQGLSAMMPLLQEICS
B4: FXR: Farnesoid X Receptor (NR1H4), cDNA driver (protein, UniProt Q96RI1 1-486, looked up)
Bile acid receptor: MVMQFQGLENPIQISPHCSCTPSGFFMEMMSMKPAKGVLTEQVAGPLGQNLEVEPYSQYSNVQFPQVQPQISSSSYYSNLGFYPQQPEEWYSPGIYELRRMPAETLYQGETEVAEMPVTKKPRMGASAGRIKGDELCVVCGDRASGYHYNALTCEGCKGFFRRSITKNAVYKCKNGGNCVMDMYMRRKCQECRLRKCKEMGMLAECMYTGLLTEIQCKSKRLRKNVKQHADQTVNEDSEGRDLRQVTSTTKSCREKTELTPDQQTLLHFIMDSYNKQRMPQEITNKILKEEFSAEENFLILTEMATNHVQVLVEFTKKLPGFQTLDHEDQIALLKGSAVEAMFLRSAEIFNKKLPSGHSDLLEERIRNSGISDEYITPMFSFYKSIGELKMTQEEYALLTAIVILSPDRQYIKDREAVEKLQEPLLDVLQKLCKIHQPENPQHFACLLGRLTELRTFNHHHAEMLMSWRVNDHKFTPLLCEIWDVQ
B5: PXR: Pregnane X Receptor (NR1I2), cDNA driver (protein, UniProt O75469 1-434, looked up)
Nuclear receptor subfamily 1 …: MEVRPKESWNHADFVHCEDTESVPGKPSVNADEEVGGPQICRVCGDKATGYHFNVMTCEGCKGFFRRAMKRNARLRCPFRKGACEITRKTRRQCQACRLRKCLESGMKKEMIMSDEAVEERRALIKRKKSERTGTQPLGVQGLTEEQRMMIRELMDAQMKTFDTTFSHFKNFRLPGVLSSGCELPESLQAPSREEAAKWSQVRKDLCSLKVSLQLRGEDGSVWNYKPPADSGGKEIFSLLPHMADMSTYMFKGIISFAKVISYFRDLPIEDQISLLKGAAFELCQLRFNTVFNAETGTWECGRLSYCLEDTAGGFQQLLLEPMLKFHYMLKKLQLHEEEYVLMQAISLFSPDRPGVLQHRVVDQLQEQFAITLKSYIECNRPQPAHRFLFLKIMAMLTELRSINAQHTQRLLRIQDIHPFATPLMQELFGITGS
B6: RARg: Retinoic acid receptor γ (NR1B3), nuclear hormone receptor cDNA driver (protein, UniProt P13631 1-454, looked up)
Retinoic acid receptor gamma: MATNKERLFAAGALGPGSGYPGAGFPFAFPGALRGSPPFEMLSPSFRGLGQPDLPKEMASLSVETQSTSSEEMVPSSPSPPPPPRVYKPCFVCNDKSSGYHYGVSSCEGCKGFFRRSIQKNMVYTCHRDKNCIINKVTRNRCQYCRLQKCFEVGMSKEAVRNDRNKKKKEVKEEGSPDSYELSPQLEELITKVSKAHQETFPSLCQLGKYTTNSSADHRVQLDLGLWDKFSELATKCIIKIVEFAKRLPGFTGLSIADQITLLKAACLDILMLRICTRYTPEQDTMTFSDGLTLNRTQMHNAGFGPLTDLVFAFAGQLLPLEMDDTETGLLSAICLICGDRMDLEEPEKVDKLQEPLLEALRLYARRRRPSQPYMFPRMLMKITDLRGISTKGAERAITLKMEIPGPMPPLIREMLENPEMFEDDSSQPGPHPNASSEDEVPGGQGKGGLKSPA

What was measured:
[1] = tested on: mPOMC promoter; experiment: NHR-promoter luciferase screen, mPOMC promoter; assay type: cell-based, mouse; conditions: for Results of assays of transcription factor (+/- ligand) with mPOMC: Table 6d, luciferase activity relative to control (control = 1.00); for Luc. act., normalized to lacZ / Normalized Luc. act., normalized to control: mPOMC promoter, HR component with or without ligand; for Normalized Luc. act., normalized to control: relative to control
Summary of the method: (§1)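 CV-1 cells were co-transfected with 50 ng NHR (homodimer or NHR/RXR heterodimer), 100 ng promoter-luciferase construct and 50 ng LacZ. Luciferase was normalized to LacZ and to a no-NHR/no-ligand control.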

[2] = tested on: hPPARg1 promoter; experiment: NHR-promoter luciferase screen, hPPARg1 promoter; assay type: cell-based, human; conditions: for Luc. act., normalized to lacZ / Normalized Luc. act., normalized to control: PPARG1 promoter, hormone receptor with or without its ligand; for Normalized Luc. act., normalized to control: relative to control; for Results of assays of transcription factor (+/- ligand) with hPPARg1: Table 6d, luciferase activity relative to control (control = 1.00)
Summary of the method: as §1

[3] = tested on: hPOMC promoter; experiment: NHR-promoter luciferase screen, hPOMC promoter; assay type: cell-based, human; conditions: for Normalized Luc. act., normalized to control / Luc. act., normalized to lacZ: hPOMC promoter, HR/ligand component; for hPOMC promoter reporter activity: transcription factor +/- ligand, control = 1.00
Summary of the method: as §1

[4] = tested on: hG6PD promoter; experiment: NHR-promoter luciferase screen, hG6PD promoter; assay type: cell-based, human; conditions: for Luc. act., normalized to lacZ / Normalized Luc. act., normalized to control: G6PD promoter reporter, co-transfected HR, without or with its ligand; for Normalized Luc. act., normalized to control: relative to control; for luciferase activity normalized to lacZ activity and to a control, hG6PD: hG6PD promoter-luciferase, CV-1 cells, NHR +/- ligand, control = 1.00
Summary of the method: as §1

[5] = tested on: RevErba promoter; experiment: NHR-promoter luciferase screen, RevErba (RVRa) promoter; assay type: cell-based; set-up: key to mRevErba promoter reporter activity / Normalized Luc. act., normalized to control: luciferase activity normalized to lacZ and to control (no NHR/ligand); conditions: for Luc. act., normalized to lacZ / Normalized Luc. act., normalized to control / negative reciprocal of normalized Luc. act. (fold repression; Table 33) / normalized Luc. act. on a logarithmic scale (column without head, Table 33): RVRa promoter; for Luc. act., normalized to lacZ / Normalized Luc. act., normalized to control: HR component without or with ligand; for negative reciprocal of normalized Luc. act. (fold repression; Table 33): given only where activity is below control; for normalized Luc. act. on a logarithmic scale (column without head, Table 33): log10 of activity normalized to control; for mRevErba promoter reporter activity: transcription factor +/- ligand, control = 1.00
Summary of the method: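 Reporter readout: RevErbα promoter-driven luciferase, corrected for LacZ transfection efficiency and expressed relative to a no-receptor or no-ligand control. Receptors (V5H6-tagged, pcDNA3.1), alone or with RXR, plus any ligand, were expressed in CV-1 cells.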

| Molecule | Results of assays of transcription factor (+/- ligand) with mPOMC [1] | Luc. act., normalized to lacZ [1] | Normalized Luc. act., normalized to control [1] | Luc. act., normalized to lacZ [2] | Normalized Luc. act., normalized to control [2] | Results of assays of transcription factor (+/- ligand) with hPPARg1 [2] | Normalized Luc. act., normalized to control [3] | hPOMC promoter reporter activity [3] | Luc. act., normalized to lacZ [4] | Normalized Luc. act., normalized to control [4] | luciferase activity normalized to lacZ activity and to a control, hG6PD [4] | Luc. act., normalized to lacZ [5] | Normalized Luc. act., normalized to control [5] | negative reciprocal of normalized Luc. act. (fold repression; Table 33) [5] | normalized Luc. act. on a logarithmic scale (column without head, Table 33) [5] | mRevErba promoter reporter activity [5] | Luc. act., normalized to lacZ [3] |
| --- | --- | --- | --- | --- | --- | --- | --- | --- | --- | --- | --- | --- | --- | --- | --- | --- | --- |
| B1 | 1.19 | 81.8 | 1.2 | 23.1 | 0.3 | 0.34 | 0.0 | 0.00 | 23.1 | 0.6 | 0.62 | 17.38 | 0.6 | −1.609 | −0.21 | 0.62 | – |
| B2 | 1.02 | 70.0 | 1.0 | 46.0 | 0.7 | 0.67 | 0.9 | 0.89 | 48.7 | 1.3 | 1.30 | 25.3 | 0.9 | −1.106 | −0.04 | 0.90 | 3.8 |
| B3 | 0.92 | 63.8 | 0.9 | 46.4 | 0.7 | 0.67 | 1.0 | 1.00 | 46.4 | 1.2 | 1.24 | 40.00 | 1.4 | – | 0.16 | 1.43 | 4.3 |
| B4 | 1.20 | 82.5 | 1.2 | 54.8 | 0.8 | 0.80 | 0.6 | 0.65 | 42.6 | 1.1 | 1.14 | 31.7 | 1.1 | – | 0.05 | 1.13 | 2.8 |
| B5 | 1.30 | 89.4 | 1.3 | 63.3 | 0.9 | 0.92 | 1.0 | 0.98 | 42.5 | 1.1 | 1.14 | 42.5 | 1.5 | – | 0.18 | 1.52 | 4.2 |
| B6 | 1.53 | 105.9 | 1.5 | 80.1 | 1.2 | 1.16 | 0.9 | 0.87 | 58.8 | 1.6 | 1.57 | 39.6 | 1.4 | – | 0.15 | 1.42 | 3.7 |
